Experimental data reported in patent US20020159989A1 (BETH ISRAEL DEACONESS MEDICAL CENTER, published 2002).

Biological target: T1, mouse TSP-1-TSR, expressed as a GAL4 DNA binding domain fusion (pAS2-1TSP1 type 1 construct) (mouse, UniProt P04386 1-147; P35441 377-549)
T1 construct: range 1-147;domain: TSR; also called TSR domain of TSP-1; bait
Assay: yeast two-hybrid counter-screen (HIS3 / lacZ reporters)

T1 sequence (P04386 other isoform, or with tags, fused parts or gaps limits assumed): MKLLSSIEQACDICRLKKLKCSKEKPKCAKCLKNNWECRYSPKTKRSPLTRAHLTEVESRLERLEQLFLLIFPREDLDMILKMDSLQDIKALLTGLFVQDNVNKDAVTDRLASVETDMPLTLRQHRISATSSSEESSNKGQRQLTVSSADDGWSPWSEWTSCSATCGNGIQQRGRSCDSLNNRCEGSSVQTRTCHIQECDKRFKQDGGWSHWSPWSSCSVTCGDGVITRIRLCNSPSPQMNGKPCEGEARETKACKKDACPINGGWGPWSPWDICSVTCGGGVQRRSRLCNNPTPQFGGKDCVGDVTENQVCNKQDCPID

binding result: no binding
B1: peptide of SEQ ID NO:1, expressed as a GAL4 activation domain fusion (prey clone from the pACT2 NIH3T3 cDNA library) (peptide)
chain: ANFNQSGNIADSSLSFTFTNSSNGPNLITTQTNSQALSQPIASSNVHDNFMNNEITASKIDDGNNSKPLSPGWTDQTAYNAFGITTGMFNTTTMDDVYNYLFDDEDTPPNPKKEAPWNCCPVSCCGNCCFFRALQSCPQG
notes: range 768-881; Yeast two-hybrid prey; also called peptide of the invention
